Three molecules from publication PMC10164912, “Exploration of O-GlcNAc transferase glycosylation sites reveals a target sequence compositional bias” (The Journal of Biological Chemistry, 2023) can be followed below.

T1: TPR region of OGT (OGT-TPR, aa 2-474) not fused to SUMO (human, UniProt O15294 2-474)
T1 construct: O-GlcNAc transferase (OGT), human ncOGT (longest isoform, 1-1046, 13 TPR repeats), tetratricopeptide repeat region, residues 2-474; Unlabelled; this was not measured here; also called OGT-TPR with the SUMO tag removed
T1 sequence (looked up): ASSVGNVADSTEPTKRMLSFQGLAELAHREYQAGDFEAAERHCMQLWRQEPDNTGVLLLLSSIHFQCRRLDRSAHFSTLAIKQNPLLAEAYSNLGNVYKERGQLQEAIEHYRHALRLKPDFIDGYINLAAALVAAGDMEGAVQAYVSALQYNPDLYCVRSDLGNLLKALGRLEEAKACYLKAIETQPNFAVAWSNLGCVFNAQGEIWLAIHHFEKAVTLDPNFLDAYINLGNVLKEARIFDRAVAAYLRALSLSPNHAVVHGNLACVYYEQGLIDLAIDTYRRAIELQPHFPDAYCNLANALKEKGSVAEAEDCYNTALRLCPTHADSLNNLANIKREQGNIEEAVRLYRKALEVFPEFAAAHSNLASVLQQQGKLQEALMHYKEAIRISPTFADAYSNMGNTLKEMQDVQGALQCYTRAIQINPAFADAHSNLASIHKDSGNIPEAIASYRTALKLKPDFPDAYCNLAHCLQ

B1: TPR region of OGT (OGT-TPR, aa 2-474) fused to a SUMO tag (domain or fragment, human, UniProt O15294 2-474, looked up)
chain: T1 sequence (looked up)
notes: O-GlcNAc transferase (OGT), human ncOGT (longest isoform, 1-1046, 13 TPR repeats), tetratricopeptide repeat region, residues 2-474; Unlabelled; this was not measured here; also called SUMO-OGT-TPR; SUMO-fused OGT-TPR
B2: WT FUS N-terminal low-complexity region (LCRN), aa 1-214 (domain or fragment, human, UniProt P35637 1-214, looked up)
chain: MASNDYTQQATQSYGAYPTQPGQGYSQQSSQPYGQQSYSGYSQSTDTSGYGQSSYSSYGQSQNTGYGTQSTPQGYGSTGGYGSSQSSQSSYGQQSSYPGYGQQPAPSSTSGSYGSSSQSSSYGQPQSGSYSQQPSYGGQQQSYGQQQSYNPPQGYGQQNQYNSSSGGGGGGGGGGNYGQDQSSMSSGGGSGGGYGNQDQSGGGGSGGYGQQDRG
notes: FUS (fused in sarcoma), human, N-terminal low-complexity region, aa 1-214; 15N-labelled for NMR; also called WT FUS LCRN; FUS LCRN
B3: Mut-F FUS N-terminal low-complexity region (LCRN), aa 1-214 (domain or fragment, human, UniProt P35637 1-214, looked up)
chain: MASNDYTQQATQSYGAYPTQPGQGYSQQSSTPYAQASYSTYSPSTTTSAYGQSSYSSYGQSQNTGYATTSTPQAYPSTAPYATSPSSQSSYGQQSSYPAYTQQPAPTTTSASYATSSQSSSYGQPQSGSYSQQPSYGGQQQSYGQQQSYNPPQGYGQQNQYNSSSGGGGGGGGGGNYGQDQSSMSSGGGSGGGYGNQDQSGGGGSGGYGQQDRG
notes: FUS (fused in sarcoma), human, N-terminal low-complexity region, aa 1-214, with the combined mutations of Mut-A, Mut-B and Mut-C; 15N-labelled for NMR; also called FUS Mut-F; Mut-F FUS LCRN

Holding throughout (conditions): both partners purified
The target in test [1] is B3. The test is described as follows: NMR titration; 1H-15N HSQC of 20 uM 15N-labelled FUS LCRN (WT or Mut-F) without and with 32 uM unlabelled SUMO-OGT-TPR; 600 MHz, 5 °C, 40 mM KPO4, 125 mM NaCl, 0.5 mM EDTA, 0.5 mM benzamidine, 5 mM DTT, 10% D2O, pH 7.2; peak intensity ratios plus OGT-TPR/apo.
In test [2] the target is B2. The description is as above.
In test [3] the target is T1, TPR region of OGT (OGT-TPR, aa 2-474) …. The experiment in a line: NMR titration; 1H-15N HSQC of 15N-labelled FUS LCRN (WT or Mut-F) without and with OGT-TPR whose SUMO tag was removed; the samples with OGT-TPR phase separated, no quantitative comparison.

B1: the results for the “average peak intensity ratio (plus OGT-TPR/apo)” value in test [1] and in test [2] were 0.36 ± 0.22 and 0.48, respectively. On to B2, for which, in test [3], the binding result is recorded as “binds”. Consider B3, for which the binding result in test [3] is reported as “binds”.
